Laboratory results published in patent US20080233097A1, “Phosphorylation Site Of Mitogen-Activated Protein Kinases, Modified Proteins And Applications” (UNIVERSIDAD AUTONOMA DE MADRID, priority 2005, published 2008).

Target: T1, GRK2 (Bos taurus, UniProt P21146)
T1 construct: made in house; host or cells: Sf9 cells (baculovirus)
T1 sequence (P21146 1-689): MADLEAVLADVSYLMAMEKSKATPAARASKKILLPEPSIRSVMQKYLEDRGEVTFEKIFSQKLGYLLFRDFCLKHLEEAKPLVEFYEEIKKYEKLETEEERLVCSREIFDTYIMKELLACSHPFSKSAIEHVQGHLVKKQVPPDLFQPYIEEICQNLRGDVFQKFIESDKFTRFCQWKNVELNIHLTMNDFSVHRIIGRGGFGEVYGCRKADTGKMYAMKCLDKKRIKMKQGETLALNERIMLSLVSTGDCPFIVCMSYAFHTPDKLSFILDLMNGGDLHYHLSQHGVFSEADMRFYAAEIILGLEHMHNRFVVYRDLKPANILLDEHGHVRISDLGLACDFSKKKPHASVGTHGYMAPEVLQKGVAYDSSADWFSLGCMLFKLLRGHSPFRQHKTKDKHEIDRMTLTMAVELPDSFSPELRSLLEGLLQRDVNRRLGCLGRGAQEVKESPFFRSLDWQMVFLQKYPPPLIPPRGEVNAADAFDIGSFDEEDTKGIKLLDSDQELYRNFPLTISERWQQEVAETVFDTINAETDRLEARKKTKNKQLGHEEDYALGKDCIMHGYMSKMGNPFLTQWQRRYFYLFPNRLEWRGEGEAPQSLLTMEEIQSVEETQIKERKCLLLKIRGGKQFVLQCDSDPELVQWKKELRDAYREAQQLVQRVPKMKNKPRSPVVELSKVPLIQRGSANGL
Test: phosphorylation of p38 mutants and truncated proteins by GRK2 in vitro
Type: biochemical
Conditions: GST fusion proteins, 30 minutes at 30° C.
Protocol: FIG. 6A: Proteins fused to GST (black rectangle in the protein schemes) were purified from bacteria transformed with the plasmids pGEX2T-p38α, pGEX4T-Mxi2 and pGEX4T-Mxi2Δ17: p38α, Mxi2 and Mxi2Δ17. The […] isoforms used as C-terminal truncated mutants for trying to limit the GRK2 phosphorylation site. […] Heparin (150 nM) was included as a specific GRK2 inhibitor. The reactions were stopped by adding SDS breaking buffer. The samples were resolved in 8% SDS-PAGE. For the purpose of assuring the inclusion of identical amounts of protein, they were first visualized in the gel by Coomassie Brilliant Blue (CBB) staining. Then the gel was dried and the radioactivity incorporated to the proteins (^32P) was detected. FIG. 6B: The truncated GST-280-360p38 protein, corresponding to the last 80 p38α amino acids, was generated by means of the Invitrogen Gateway system. Phosphorylation assays were carried out with Mxi2Δ17 as a p38 N-terminal, 280-360 p38 as C-terminal and with whole p38α in the same conditions as described in section A. The phosphorylation was detected by autoradiography (^32P) and controls of the amount of protein used in the assays were carried out concomitantly by Western blot with the anti-GST antibody. The presence of the GST-280-360p38 protein, which is not phosphorylated, is clearly observed. STD, mobility of standard molecular weight proteins.
FIG. 9A: p38T123A and p38T123D proteins, fused to GST, were made by directed mutagenesis in the prokaryotic expression plasmids pGEX2T. The ability of the recombinant GST-p38T123A and GST-p38T123D proteins to be GRK2 substrates in comparison to the wild GST-p38WT protein and at the final concentrations indicated in the Figure was assayed. The upper panels represent the obtained phosphorylation (32 P) and the lower panels show, by anti-p38N WB, the amount of recombinant protein used in the assays. […]
Heparin (150 nM) was included as a specific GRK2 inhibitor. […] Subsequently, the gel was dried and the radioactivity incorporated to the proteins (^32P) was detected. […]

B1: p38T123D: p38α mutant; aspartic acid mimics the constitutively phosphorylated form of threonine 123 (protein, UniProt P47811 2-360, looked up, variant T123D)
Mitogen-activated protein …: SQERPTFYRQELNKTIWEVPERYQNLSPVGSGAYGSVCAAFDTKTGHRVAVKKLSRPFQSIIHAKRTYRELRLLKHMKHENVIGLLDVFTPARSLEEFNDVYLVTHLMGADLNNIVKCQKLDDDHVQFLIYQILRGLKYIHSADIIHRDLKPSNLAVNEDCELKILDFGLARHTDDEMTGYVATRWYRAPEIMLNWMHYNQTVDIWSVGCIMAELLTGRTLFPGTDHIDQLKLILRLVGTPGAELLKKISSESARNYIQSLAQMPKMNFANVFIGANPLAVDLLEKMLVLDSDKRITAAQALAHAYFAQYHDPDDEPVADPYDQSFESRDLLIDEWKSLTYDEVISFVPPPLDQEEMES
modifications: GST or Flag tag in some forms
ability to be a GRK2 substrate (32P incorporation): none of the two mutant is a GRK2 substrate
